Reference: patent WO2018134389A1 (dated 2018)

Legend:
[1] = target: T1, Recombinant HIV-1 IIIB gp120 derived from CHO cells (ImmunoDx) (HIV-1 IIIB, UniProt P04578 33-511); experiment: lectin-functionalized plate, labelled glycoprotein, fluorescence read-out
T1 construct: also called HIV-1 IIIB gpl20; HIV-1 gp120

[2] = target: T1, Recombinant HIV-1 IIIB gp120 derived …; experiment: flow cytometry on HEK293T point-mutant transfectants

B1: Sambucus Nigra Agglutinin (other)
chain: VTPPVYPSVSFNLTGADTYEPFLRALQEKVILGNHTAFDLPVLNPESQVSDSNRFVLVPLTNPSGDTVTLAIDVVNLYVVAFSSNGKSYFFSGSTAVQRDNLFVDTTQEELNFTGNYTSLERQVGFGRVYIPLGPKSLDQAISSLRTYTLTAGDTKPLARGLLVVIQMVSEAARFRYIELRIRTSITDASEFTPDLLMLSMENNWSSMSSEIQQAQPGGIFAGVVQLRDERNNSIEVTNFRRLFELTYIAVLLYGCAPVTSSSYSNNAIDAQIIKMPVFRGGEYEKVCSVVEVTRRISGWDGLCVDVRYGHYIDGNPVQLRPCGNECNQLWTFRTDGTIRWLGKCLTASSSVMIYDCNTVPPEATKWVVSIDGTITNPHSGLVLTAPQAAEGTALSLENNIHAARQGWTVGDVEPLVTFIVGYKQMCLRENGENNFVWLEDCVLNRVQQEWALYGDGTIRVNSNRSLCVTSEDHEPSDLIVILKCEGSGNQRWVFNTNGTISNPNAKLLMDVAQRDVSLRKIILYRPTGNPNQQWITTTHPA
notes: also called SNA
[1]
  binding result: no binding (tested: 10, 2 and 0.4 μg/ml)

B2: DC-SIGN CRD single point mutant S360A, stably expressed on HEK293T cells (receptor)
chain: MSDSKEPRLQQLGLLEEEQLRGLGFRQTRGYKSLAGCLGHGPLVLQLLSFTLLAGLLVQVSKVPSSISQEQSRQDAIYQNLTQLKAAVGELSEKSKLQEIYQELTQLKAAVGELPEKSKLQEIYQELTRLKAAVGELPEKSKLQEIYQELTWLKAAVGELPEKSKMQEIYQELTRLKAAVGELPEKSKQQEIYQELTRLKAAVGELPEKSKQQEIYQELTRLKAAVGELPEKSKQQEIYQELTQLKAAVERLCHPCPWEWTFFQGNCYFMSNSQRNWHDSITACKEVGAQLVVIKSAEEQNFLQLQSSRSNRFTWMGLSDLNQEGTWQWVDGSPLLPSFKQYWNRGEPNNVGEEDCAEFAGNGWNDDKCNLAKFWICKKSAASCSRDEEQFLSPAPATPNPPPA
notes: whole, on cells
[2]
  binding result: binds

B3: DC-SIGN CRD single point mutant V351A, stably expressed on HEK293T cells (receptor)
chain: MSDSKEPRLQQLGLLEEEQLRGLGFRQTRGYKSLAGCLGHGPLVLQLLSFTLLAGLLVQVSKVPSSISQEQSRQDAIYQNLTQLKAAVGELSEKSKLQEIYQELTQLKAAVGELPEKSKLQEIYQELTRLKAAVGELPEKSKLQEIYQELTWLKAAVGELPEKSKMQEIYQELTRLKAAVGELPEKSKQQEIYQELTRLKAAVGELPEKSKQQEIYQELTRLKAAVGELPEKSKQQEIYQELTQLKAAVERLCHPCPWEWTFFQGNCYFMSNSQRNWHDSITACKEVGAQLVVIKSAEEQNFLQLQSSRSNRFTWMGLSDLNQEGTWQWVDGSPLLPSFKQYWNRGEPNNAGEEDCAEFSGNGWNDDKCNLAKFWICKKSAASCSRDEEQFLSPAPATPNPPPA
notes: whole, on cells
[2]
  binding result: binds

B4: DC-SIGN CRD single point mutant D367A, stably expressed on HEK293T cells (receptor)
chain: MSDSKEPRLQQLGLLEEEQLRGLGFRQTRGYKSLAGCLGHGPLVLQLLSFTLLAGLLVQVSKVPSSISQEQSRQDAIYQNLTQLKAAVGELSEKSKLQEIYQELTQLKAAVGELPEKSKLQEIYQELTRLKAAVGELPEKSKLQEIYQELTWLKAAVGELPEKSKMQEIYQELTRLKAAVGELPEKSKQQEIYQELTRLKAAVGELPEKSKQQEIYQELTRLKAAVGELPEKSKQQEIYQELTQLKAAVERLCHPCPWEWTFFQGNCYFMSNSQRNWHDSITACKEVGAQLVVIKSAEEQNFLQLQSSRSNRFTWMGLSDLNQEGTWQWVDGSPLLPSFKQYWNRGEPNNVGEEDCAEFSGNGWNDAKCNLAKFWICKKSAASCSRDEEQFLSPAPATPNPPPA
notes: whole, on cells
[2]
  binding result: binds
